The values below come from patent US20240209078A1.

Like-named read-outs stand apart in the source and are kept apart here.

Test [1] has as its target human MSLN (mesothelin) (human) (UniProt Q13421). The experiment in a line: cell-based or functional assay.
For test [2] the target is unchanged. In words: cell-based or functional assay. The source holds these as a separate data set.

B1: CH3 15-E11 CC×I2L×G4×scFc×G4×MS 15-B12 CC×I2L_GQ (SEQ ID NO 251) (bispecific antibody)
chain: QVQLVQSGAEVKKPGASVKVSCKASGYTFTNYWMNWVRQAPGQCLEWMGNIAYGVKGTNYNQKFQGRVTMTVDTSSSTAYMELSRLRSDDTAVYYCATRYFYVMDYWGQGTLVTVSSGGGGQGGGGQGGGGQDIQMTQSPSSLSASVGDRVTITCRASQDISNYLNWYQQKPGKVPKLLIYYTSRLHSGVPSRFSGSGSGTDFTLTISSLQPEDVATYYCVQYAQFPLTFGCGTKVEIKSGGGGQEVQLVESGGGLVQPGGSLKLSCAASGFTFNKYAMNWVRQAPGKGMEWVARIRSKYNNYATYYADAVKDRFTISRDDSKNTLYLQMNNLKTEDTAVYYCVRAGNFGSSYISYFAYWGQGTLVTVSSGGGGQGGGGQGGGGQQTVVTQEPSLTVSPGGTVTITCGSSTGAVTSGNYPNWIQKKPGQAPRGLIGGTKFLAPGTPARFSGSLEGGKAALTLSGVQPEDEAEYYCVLYYSNRWVFGSGTKLTVLGGGGCPPCPAPELLGGPSVFLFPPKPKDTLMISRTPEVTCVVVDVSHEEPEVKFNWYVDGVEVHNAKTKPCEEQYGSTYRCVSVLTVLHQDWLNGKEYKCKVSNKALPAPIEKTISKAKGQPREPQVYTLPPSREEMTKNQVSLTCLVKGFYPSDIAVEWESNGQPENNYKTTPPVLDSDGSFFLYSKLTVDKSRWQQGNVFSCSVMHEALHNHYTQKSLSLSPGKGGGGQGGGGQGGGGQGGGGQGGGGQGGGGQCPPCPAPELLGGPSVFLFPPKPKDTLMISRTPEVTCVVVDVSHEEPEVKFNWYVDGVEVHNAKTKPCEEQYGSTYRCVSVLTVLHQDWLNGKEYKCKVSNKALPAPIEKTISKAKGQPREPQVYTLPPSREEMTKNQVSLTCLVKGFYPSDIAVEWESNGQPENNYKTTPPVLDSDGSFFLYSKLTVDKSRWQQGNVFSCSVMHEALHNHYTQKSLSLSPGKGGGGQVQLQESGPGLVKPSETLSLTCTVSGGSISSSSYFWGWIRQPPGKCLEWIGNIYYSGSSNYNPSLKSRVTISVDTSKNQFSLKLSSVTAADTAVYYCARLPRGDRDAFDIWGQGTMVTVSSGGGGQGGGGQGGGGQDIVMTQSPSSLSASVGDRVTITCRASQGISNYLAWYQQKPGKVPKLLIYAASTLQSGVPSRFSGSGSGTDFTLTISSLQPEDFATYYCQQSYSTPFTFGCGTKVEIKSGGGGQEVQLVESGGGLVQPGGSLKLSCAASGFTFNKYAMNWVRQAPGKGMEWVARIRSKYNNYATYYADAVKDRFTISRDDSKNTLYLQMNNLKTEDTAVYYCVRAGNFGSSYISYFAYWGQGTLVTVSSGGGGQGGGGQGGGGQQTVVTQEPSLTVSPGGTVTITCGSSTGAVTSGNYPNWIQKKPGQAPRGLIGGTKFLAPGTPARFSGSLEGGKAALTLSGVQPEDEAEYYCVLYYSNRWVFGSGTKLTVL
In the case of B1, in test [1], the cytotoxicity EC50, E:T ratio 1:1, GSU KO CDH3 cells is 108 pM; the cytotoxicity EC50, E:T ratio 1:2, GSU KO CDH3 cells amounted to 446 pM; the cytotoxicity EC50, E:T ratio 10:1, GSU KO CDH3 cells amounted to 39.6 pM; the cytotoxicity EC50, GSU KO CDH3 cells worked out at 512 pM. In addition, the cytotoxicity EC50, HCT 116 KO CDH3 cells in test [1] turned out to be 51.8 pM. The molecule further had a cytotoxicity EC50, GSU KO CDH3 cells in test [2] of 512 pM.
